Measurements: article PMC4063720

Key:
[1] = biological target: Hfq (Pseudomonas aeruginosa PAO1) (UniProt Q9HUM0); assay: EMSA; settings: EMSA: 10 mM Tris-HCl pH 8.0, 10 mM MgCl2, 60 mM NaCl, 10 mM NaH2PO4, 10 mM DTT, 25 ng tRNA in 10 ul, 37 C 30 min; 4% PAGE in Tris-borate; filter binding buffer …
[2] = biological target: HfqK56A K56A (Pseudomonas aeruginosa PAO1) (UniProt Q9HUM0); assay: EMSA; settings: EMSA: 10 mM Tris-HCl pH 8.0, 10 mM MgCl2, 60 mM NaCl, 10 mM NaH2PO4, 10 mM DTT, 25 ng tRNA in 10 ul, 37 C 30 min; 4% PAGE in Tris-borate; filter binding buffer …
[3] = biological target: HfqY25D Y25D (Pseudomonas aeruginosa PAO1) (UniProt Q9HUM0); assay: EMSA; settings: EMSA: 10 mM Tris-HCl pH 8.0, 10 mM MgCl2, 60 mM NaCl, 10 mM NaH2PO4, 10 mM DTT, 25 ng tRNA in 10 ul, 37 C 30 min; 4% PAGE in Tris-borate; filter binding buffer …
[4] = biological target: Hfq (Pseudomonas aeruginosa PAO1) (UniProt Q9HUM0); assay: filter binding; settings: EMSA: 10 mM Tris-HCl pH 8.0, 10 mM MgCl2, 60 mM NaCl, 10 mM NaH2PO4, 10 mM DTT, 25 ng tRNA in 10 ul, 37 C 30 min; 4% PAGE in Tris-borate; filter binding buffer …
[5] = biological target: Hfq (Pseudomonas aeruginosa PAO1) (UniProt Q9HUM0); assay: competition; settings: EMSA: 10 mM Tris-HCl pH 8.0, 10 mM MgCl2, 60 mM NaCl, 10 mM NaH2PO4, 10 mM DTT, 25 ng tRNA in 10 ul, 37 C 30 min; 4% PAGE in Tris-borate; filter binding buffer …
[6] = system: Hfq (Pseudomonas aeruginosa PAO1); assay: filter binding; settings: Hfq-hexamer concentration; duplicate; EMSA: 10 mM Tris-HCl pH 8.0, 10 mM MgCl2, 60 mM NaCl, 10 mM NaH2PO4, 10 mM DTT, 25 ng tRNA in 10 ul, 37 C 30 min; 4% PAGE in Tris-borate; filter binding buffer …

| Substance | binding [1] | binding [2] | binding [3] | Kd [4] [nM] | binding [5] | Kd [6] [nM] |
| --- | --- | --- | --- | --- | --- | --- |
| GAUCAGGUCGUGCGCAUCAGCGUCGAUGUCGCGGGACCGAACCUAACGCAUACGUACAGAGCAAAUGGGCUCUCCCGGGGUUACCCGGGAGGGCCUUUUUUCGUCCCGAAAAAAUAACAACAAGAGGUGAUAUCCAUGCGUCACGGCGAUAUUUCCUGCAGAAAAAA [amiE -134-+20 RNA] | binds | binds | no binding | 67 | – | – |
| GCGUACAGGGAACACGCAACCCCGAAGGAUCGGGGAAGGGACGUCGCCAGGGAGGCGAUUCAUCAGGAUGAUGACGAGGGACUGAAGAGUGGGCGGGGUAAUACCCCGCCCCUUUUUUUUGCCUGCCGUUUUACUCGUCGCCCUGCAGUUU [RsmZ RNA] | – | – | – | – | no binding | – |
| GGCACAACAACAAUAACAAGCAACGACGAAGACAAUAAAAACAACACGUAACGACUCCAGCACAACAAAAACAAAAUCGCGGAGGCGCAGCUAACUGAUUCUUUUGGAGAGGAGUUGCUGUCGGGACCCGUCCCGCAGCCAGUCGGAAGAAG [CrcZ151 RNA] | binds | binds | binds more weakly | – | binds | – |
| amiE -134-+20 RNA | – | – | – | – | – | 67 |
